Reference: the supplement of paper PMC7877785
± gives the uncertainty stated by the source.

Assay: self-splicing fitness, log relative to wild type (ln ratio); higher = more splicing; Tetrahymena group I intron in knt gene, E. coli kanamycin selection, DiMSum; sequences stand for … in CUCUCU…GGAGGGAAAAGUUAUCAGGCAUGCACCUGGUAGCUAGUCUUUAAACCAAUAGAUUGCAUCGGUUUAAAAGGCAAGACCGUCAAAUUGCGGGAAAGGGGUCAACAGCCGUUCAGUACCAAGUCUCAGGGGAAACUUUGAGAUGGCCUUGCAAAGGGUAUGGUAAUAAGCUGACGGACAUGGUCCUAACCACGCAGCCAAGUCCUAAGUCAACAGAUCUUCUGUUGAUAUGGAUGCAGUUCACAGACUAAAUGUCGGUCGGGGAAGAUGUAUUCUUCUCAUAAGAUAUAGUCGGACCUCUCCUUAAUGGGAGCUAGCGGAUGAAGUGAUGCAACACUGGAGCCGCUGGGAACUAAUUUGUAUGCGAAAGUAUAUUGAUUAGUUUUGGAGUACUCGUGGUCG
Summary of the method: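 Six replicate transformations of E. coli BL21(DE3) with a pET-22b(+) library were grown overnight at 37°C or 30°C. The library randomised all eight P1ex-region intron nucleotides, the intron lying in the knt kanamycin-resistance gene, and plates were LB agar with or without 25 μg/mL kanamycin plus 100 μg/mL carbenicillin, 50 μM IPTG and 0.2% rhamnose. Pooled colonies were amplicon-sequenced on an Illumina HiSeq 2500, and fitness is the DiMSum error-weighted combination of wild-type-normalised replicate fold changes, kanamycin versus none.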

Sequence | self-splicing fitness (ln) (30 °C) | self-splicing fitness (ln) (37 °C)
CAAUAGCAAUAUUACGGUCG | -0.0402 ± 0.066 | 0.0285 ± 0.087
GUCGAGCAAUAUUACGUCUA | -1.76 ± 0.46 | -0.965 ± 0.33
UAGGAGCAAUAUUACGAGGA | -2.78 ± 0.37 | –
GUCUAGCAAUAUUACGUGCA | -1.38 ± 0.096 | -0.535 ± 0.1
AGCUAGCAAUAUUACGCAGG | -3.49 ± 0.22 | -3.93 ± 0.33
GUUCAGCAAUAUUACGUUCG | -0.684 ± 0.067 | 0.137 ± 0.1
GAAUAGCAAUAUUACGAAGU | – | -2.45 ± 0.2
GUAUAGCAAUAUUACGUGAU | -2.29 ± 0.15 | -1.71 ± 0.17
CGGUAGCAAUAUUACGUGUG | -0.17 ± 0.062 | 0.0947 ± 0.09
GUGCAGCAAUAUUACGUUUG | -1.76 ± 0.17 | -2.63 ± 0.27
GCGCAGCAAUAUUACGGCUG | -3.01 ± 0.3 | -1.7 ± 0.29
GCGAAGCAAUAUUACGUGCC | -3.73 ± 0.18 | -3 ± 0.23
UGAUAGCAAUAUUACGUGGU | -2.4 ± 0.21 | -2.73 ± 0.23
AAUAAGCAAUAUUACGCGGA | -2.57 ± 0.22 | -1.33 ± 0.19
CUUUAGCAAUAUUACGGACA | -2.76 ± 0.38 | -1.44 ± 0.28
CACGAGCAAUAUUACGACUU | -4.4 ± 0.34 | -0.766 ± 0.13
ACCAAGCAAUAUUACGGAUG | -2.47 ± 0.069 | -2.48 ± 0.088
AGGCAGCAAUAUUACGCCAG | -0.444 ± 0.14 | -0.82 ± 0.25
UAAUAGCAAUAUUACGAAAU | – | -2.07 ± 0.36
AUGUAGCAAUAUUACGCCUG | -1.33 ± 0.23 | -0.722 ± 0.21
CCUGAGCAAUAUUACGGUAA | -3.76 ± 0.37 | -3.55 ± 0.25
UGCGAGCAAUAUUACGCAGU | – | -4.06 ± 0.39
AUUCAGCAAUAUUACGCAUC | -2.75 ± 0.16 | -0.806 ± 0.16
CGCCAGCAAUAUUACGCCGG | -3.13 ± 0.2 | -3.21 ± 0.35
AUCCAGCAAUAUUACGUAUA | -0.94 ± 0.11 | -1.11 ± 0.14

Sequence | self-splicing fitness (ln) (30 °C) | self-splicing fitness (ln) (37 °C)
CGCCAGCAAUAUUACGUUAA | -3.31 ± 0.22 | -2.57 ± 0.17
UCUCAGCAAUAUUACGUAAU | -3.43 ± 0.18 | -2.28 ± 0.18
GCUUAGCAAUAUUACGUGUG | -1.91 ± 0.054 | -1.14 ± 0.066
AGAAAGCAAUAUUACGUAAG | -1.61 ± 0.084 | -0.0907 ± 0.095
CGGCAGCAAUAUUACGGUCA | -0.0453 ± 0.068 | -0.156 ± 0.083
AACUAGCAAUAUUACGAGCU | -1.5 ± 0.095 | -0.511 ± 0.11
CAUUAGCAAUAUUACGGAGC | -2.94 ± 0.4 | -2.04 ± 0.23
GGUAAGCAAUAUUACGGUUG | -3.76 ± 0.39 | –
UAUAAGCAAUAUUACGCGUG | -1 ± 0.057 | -0.488 ± 0.075
GCUUAGCAAUAUUACGCCUU | -2.7 ± 0.21 | 0.179 ± 0.19
GGGCAGCAAUAUUACGGCUU | -0.964 ± 0.15 | -1.14 ± 0.16
CUUCAGCAAUAUUACGUAUG | -0.871 ± 0.066 | -0.276 ± 0.074
GGUUAGCAAUAUUACGGGUU | -1.99 ± 0.1 | -1.48 ± 0.12
CUCAAGCAAUAUUACGACAC | -3.35 ± 0.29 | -2.52 ± 0.3
GUCCAGCAAUAUUACGCAAA | -1.46 ± 0.12 | -0.457 ± 0.11
GCACAGCAAUAUUACGAACA | -1.42 ± 0.11 | -0.85 ± 0.1
CAGCAGCAAUAUUACGCGUG | -3.2 ± 0.18 | -1.92 ± 0.15
GACGAGCAAUAUUACGCAUU | -2.74 ± 0.21 | -2.44 ± 0.21
GAAGAGCAAUAUUACGCGCG | -2.21 ± 0.3 | -1.36 ± 0.22
UCAAAGCAAUAUUACGUGGC | -3.62 ± 0.32 | -2.45 ± 0.32
AUACAGCAAUAUUACGUAGA | -2.11 ± 0.085 | -0.327 ± 0.076
CGGAAGCAAUAUUACGUCCA | -0.281 ± 0.097 | 0.585 ± 0.13
CCGUAGCAAUAUUACGGUAG | -3.48 ± 0.2 | -2.97 ± 0.24
AUUAAGCAAUAUUACGCGGA | -2.44 ± 0.2 | -0.491 ± 0.15
